Reference: patent US20210030885A1, “HUMANIZED ANTI-LIV1 ANTIBODIES FOR THE TREATMENT OF CANCER” (priority 2019, published 2021)

Test system: patients with metastatic breast cancer
Assay: Phase 1 dose-escalation study, safety and tolerability of weekly LV (Day 1, 8, 15 of 3-week cycle)
Type: in vivo, human
From the text: This is a phase 1, open label, dose escalation study to evaluate the safety and tolerability of ladiratuzumab vedotin (LV) in patients with metastatic breast cancer.
Eligible patients are females at least 18 years of age who have incurable, unresectable, locally advanced or metastatic breast cancer (LA/mBC). Patients must have pathologically and radiologically confirmed hormone receptor-positive/human epidermal growth factor 2 negative (HR+/HER2−) or metastatic triple-negative breast cancer (mTNBC) with at least 1 measurable lesion per RECIST v1.1. Subjects with HR+/HER2− disease must have received no more than 1 prior line of cytotoxic chemotherapy in the locally advanced (LA)/mBC setting, either as single agent or combination therapy. Subjects with TNBC must have received 1 prior line of cytotoxic chemotherapy in the LA/mBC setting. Progression within 6 months of completion of neoadjuvant therapy is considered an LA/mBC regimen. Enrollment is open to all patients, irrespective of their LIV-1 expression level. Available and adequate archival baseline tumor sample is required. A fresh biopsy sample may be submitted in place of an archival sample if medically feasible.
Up to […] will be enrolled (42 HR+/HER2− and 42 mTNBC) into dose escalation and dose-expansion cohorts. Patients will receive LV on Day 1, Day 8, and Day 15 in every 3-week cycle. The study will have dose escalation and expansions cohorts. Patients with HR+/HER2− and TN disease will be enrolled into separate dose-expansion cohorts for each dose level.
Dose escalation will be conducted using the modified toxicity probability interval (mTPI) method according to Ji Y. et al. Clin Trials 7(6):653-63 (2010). Only 1 dose-escalation cohort will be open at a time. Dose-expansion cohorts may be opened at any dose level that has cleared dose-limiting toxicity (DLT) evaluation. Initially, up to approximately 10 patients will be enrolled at each dose level. DLT evaluation will only include data from the dose-escalation cohorts, but the totality of data from all patients at each dose level will be used to determine the recommended weekly LV dose.
LV will be administered at a dose of 0.75 mg/kg to 1.75 mg/kg by intravenous infusion over the course of 30 minutes on Day 1, Day 8, and Day 15 in every 3-week cycle.
The DLT evaluation period is the first treatment cycle (3 weeks). A DLT will be defined as any AE≥Grade 3, according to the NCI CTCAE v4.03, that is possibly, probably, or definitely related to treatment with LV, unless evidence exists that the AE has an etiology other than the investigational agent (e.g., disease progression, pre-existing medical condition, underlying disease, intercurrent illness, or concomitant medication), and/or the event has no plausible temporal relationship to administration of the investigational agent.
Patients were enrolled in the study described in Example 19. Patients had either first or second line endocrine refractory HR+/HER2− metastatic breast cancer or second line metastatic triple negative breast cancer (TNBC). LV was administered at a dose of 1.0 mg/kg, 1.25 mg/kg, or 1.5 mg/kg by intravenous infusion over the course of 30 minutes on Day 1, Day 8, and Day 15 in every 3-week cycle as described in Example 19.

Substance: ladiratuzumab vedotin [LV]
- Grade 5 ischemic colitis, subjects (1 mg/kg LV, unrelated to treatment): *Grade 5 ischemic colitis was observed in 1 subject treated with 1 mg/kg LV. This was unrelated to treatment.
- Grade 3 or higher TEAE: Any Adverse Event (1.0 mg/kg Q1W, n = 20): 12 (60%) n (%)
- Grade 3 or higher TEAE: Diarrhoea (1.0 mg/kg Q1W, n = 20): 1 (5%) n (%)
- Grade 3 or higher TEAE: Fatigue (1.0 mg/kg Q1W, n = 20): 4 (20%) n (%)
- Grade 3 or higher TEAE: Hyperglycemia (1.0 mg/kg Q1W, n = 20): 3 (15%) n (%)
- Grade 3 or higher TEAE: Hypophosphataemia (1.0 mg/kg Q1W, n = 20): 1 (5%) n (%)
- Grade 3 or higher TEAE: Myalgia (1.0 mg/kg Q1W, n = 20): 0 n (%)
- Grade 3 or higher TEAE: Nausea (1.0 mg/kg Q1W, n = 20): 1 (5%) n (%)
- Grade 3 or higher TEAE: Neutropenia (1.0 mg/kg Q1W, n = 20): 2 (10%) n (%)
- Grade 3 or higher TEAE: Neutrophil count decreased (1.0 mg/kg Q1W, n = 20): 1 (5%) n (%)
- Grade 3 or higher TEAE: Peripheral Sensory Neuropathy (1.0 mg/kg Q1W, n = 20): 3 (15%) n (%)
- SAE: Anaemia (1.0 mg/kg Q1W, n = 20): 1 (5%) n (%)
- SAE: Any Adverse Event (1.0 mg/kg Q1W, n = 20): 5 (25%) n (%)
- SAE: Colitis (1.0 mg/kg Q1W, n = 20): 1 (5%) n (%)
- SAE: Dehydration (1.0 mg/kg Q1W, n = 20): 1 (5%) n (%)
- SAE: Diabetic ketoacidosis (1.0 mg/kg Q1W, n = 20): 1 (5%) n (%)
- SAE: Dyspnoea (1.0 mg/kg Q1W, n = 20): 2 (10%) n (%)
- SAE: Embolism (1.0 mg/kg Q1W, n = 20): 1 (5%) n (%)
- SAE: Fatigue (1.0 mg/kg Q1W, n = 20): 1 (5%) n (%)
- SAE: Febrile neutropenia (1.0 mg/kg Q1W, n = 20): 1 (5%) n (%)
- SAE: Hyperglycaemia (1.0 mg/kg Q1W, n = 20): 1 (5%) n (%)
- SAE: Pneumonia (1.0 mg/kg Q1W, n = 20): 0 n (%)
- Grade 3 or higher TEAE: Any Adverse Event (1.25 mg/kg Q1W, n = 18): 14 (78%) n (%)
- Grade 3 or higher TEAE: Diarrhoea (1.25 mg/kg Q1W, n = 18): 1 (6%) n (%)
- Grade 3 or higher TEAE: Fatigue (1.25 mg/kg Q1W, n = 18): 2 (11%) n (%)
- Grade 3 or higher TEAE: Hyperglycemia (1.25 mg/kg Q1W, n = 18): 1 (6%) n (%)
- Grade 3 or higher TEAE: Hypophosphataemia (1.25 mg/kg Q1W, n = 18): 2 (11%) n (%)
- Grade 3 or higher TEAE: Myalgia (1.25 mg/kg Q1W, n = 18): 1 (6%) n (%)
- Grade 3 or higher TEAE: Nausea (1.25 mg/kg Q1W, n = 18): 1 (6%) n (%)
- Grade 3 or higher TEAE: Neutropenia (1.25 mg/kg Q1W, n = 18): 4 (22%) n (%)
- Grade 3 or higher TEAE: Neutrophil count decreased (1.25 mg/kg Q1W, n = 18): 1 (6%) n (%)
- Grade 3 or higher TEAE: Peripheral Sensory Neuropathy (1.25 mg/kg Q1W, n = 18): 6 (33%) n (%)
- SAE: Anaemia (1.25 mg/kg Q1W, n = 18): 0 n (%)
- SAE: Any Adverse Event (1.25 mg/kg Q1W, n = 18): 5 (28%) n (%)
- SAE: Colitis (1.25 mg/kg Q1W, n = 18): 0 n (%)
- SAE: Dehydration (1.25 mg/kg Q1W, n = 18): 0 n (%)
- SAE: Diabetic ketoacidosis (1.25 mg/kg Q1W, n = 18): 0 n (%)
- SAE: Dyspnoea (1.25 mg/kg Q1W, n = 18): 1 (6%) n (%)
- SAE: Embolism (1.25 mg/kg Q1W, n = 18): 0 n (%)
- SAE: Fatigue (1.25 mg/kg Q1W, n = 18): 0 n (%)
- SAE: Febrile neutropenia (1.25 mg/kg Q1W, n = 18): 0 n (%)
- SAE: Hyperglycaemia (1.25 mg/kg Q1W, n = 18): 1 (6%) n (%)
- SAE: Pneumonia (1.25 mg/kg Q1W, n = 18): 2 (11%) n (%)
- Grade 3 or higher TEAE: Any Adverse Event (1.5 mg/kg Q1W, n = 2): 2 (100%) n (%)
- Grade 3 or higher TEAE: Myalgia (1.5 mg/kg Q1W, n = 2): 1 (50%) n (%)
- Grade 3 or higher TEAE: Neutropenia (1.5 mg/kg Q1W, n = 2): 1 (50%) n (%)
- SAE: Anaemia (1.5 mg/kg Q1W, n = 2): 0 n (%)
- SAE: Any Adverse Event (1.5 mg/kg Q1W, n = 2): 1 (50%) n (%)
- SAE: Colitis (1.5 mg/kg Q1W, n = 2): 0 n (%)
- SAE: Dehydration (1.5 mg/kg Q1W, n = 2): 0 n (%)
- SAE: Diabetic ketoacidosis (1.5 mg/kg Q1W, n = 2): 0 n (%)
- SAE: Dyspnoea (1.5 mg/kg Q1W, n = 2): 0 n (%)
- SAE: Embolism (1.5 mg/kg Q1W, n = 2): 0 n (%)
- SAE: Fatigue (1.5 mg/kg Q1W, n = 2): 0 n (%)
- SAE: Febrile neutropenia (1.5 mg/kg Q1W, n = 2): 0 n (%)
- SAE: Hyperglycaemia (1.5 mg/kg Q1W, n = 2): 0 n (%)
- SAE: Pneumonia (1.5 mg/kg Q1W, n = 2): 0 n (%)
- incidence of a variety of adverse events, Q1W vs Q3W (3.0-4.5 mg/kg per 3 weeks on Q1W vs. 2.5 mg/kg on Q3W): lower incidence
- dose limiting toxicities (Dose level 0 (1 mg/kg Q1W), +1 (1.25 mg/kg Q1W), +2 (1.5 mg/kg Q1W)): no dose limiting toxicities observed
- Adverse event incidence: Abdominal Pain (Q1W, N = 40): 7 (18%)
- Adverse event incidence: Alopecia (Q1W, N = 40): 10 (25%)
- Adverse event incidence: Constipation (Q1W, N = 40): 10 (25%)
- Adverse event incidence: Decreased Appetite (Q1W, N = 40): 11 (28%)
- Adverse event incidence: Diarrhea (Q1W, N = 40): 11 (28%)
- Adverse event incidence: Fatigue (Q1W, N = 40): 18 (45%)
- Adverse event incidence: Hypokalemia (Q1W, N = 40): 4 (10%)
- Adverse event incidence: Nausea (Q1W, N = 40): 14 (35%)
- Adverse event incidence: Neutropenia (Q1W, N = 40): 10 (25%)
- Adverse event incidence: Peripheral Sensory Neuropathy (Q1W, N = 40): 9 (23%)
- Adverse event incidence: Vomiting (Q1W, N = 40): 8 (20%)
- Grade 3 or higher TEAE: Any Adverse Event (Total, all Q1W doses, n = 40): 28 (70%) n (%)
- Grade 3 or higher TEAE: Diarrhoea (Total, all Q1W doses, n = 40): 2 (5%) n (%)
- Grade 3 or higher TEAE: Fatigue (Total, all Q1W doses, n = 40): 6 (15%) n (%)
- Grade 3 or higher TEAE: Hyperglycemia (Total, all Q1W doses, n = 40): 4 (10%) n (%)
- Grade 3 or higher TEAE: Hypophosphataemia (Total, all Q1W doses, n = 40): 3 (8%) n (%)
- Grade 3 or higher TEAE: Myalgia (Total, all Q1W doses, n = 40): 2 (5%) n (%)
- Grade 3 or higher TEAE: Nausea (Total, all Q1W doses, n = 40): 2 (5%) n (%)
- Grade 3 or higher TEAE: Neutropenia (Total, all Q1W doses, n = 40): 7 (18%) n (%)
- Grade 3 or higher TEAE: Neutrophil count decreased (Total, all Q1W doses, n = 40): 2 (5%) n (%)
- Grade 3 or higher TEAE: Peripheral Sensory Neuropathy (Total, all Q1W doses, n = 40): 9 (23%) n (%)
- SAE: Anaemia (Total, all Q1W doses, n = 40): 1 (3%) n (%)
- SAE: Any Adverse Event (Total, all Q1W doses, n = 40): 11 (28%) n (%)
- SAE: Colitis (Total, all Q1W doses, n = 40): 1 (3%) n (%)
- SAE: Dehydration (Total, all Q1W doses, n = 40): 1 (3%) n (%)
- SAE: Diabetic ketoacidosis (Total, all Q1W doses, n = 40): 1 (3%) n (%)
- SAE: Dyspnoea (Total, all Q1W doses, n = 40): 3 (8%) n (%)
- SAE: Embolism (Total, all Q1W doses, n = 40): 1 (3%) n (%)
- SAE: Fatigue (Total, all Q1W doses, n = 40): 1 (3%) n (%)
- SAE: Febrile neutropenia (Total, all Q1W doses, n = 40): 1 (3%) n (%)
- SAE: Hyperglycaemia (Total, all Q1W doses, n = 40): 2 (5%) n (%)
- SAE: Pneumonia (Total, all Q1W doses, n = 40): 2 (5.%) n (%)
